Test results from US20140162289A1.

Target: ADRB2-luc234R233 (β2 adrenergic receptor fused at its C terminus to permuted firefly luciferase with R at the X position of the TEV cleavage site) (firefly) (UniProt P07550)
Test: cell-based or functional assay

Sequence of Human β arrestin 2-TEV fusion (tobacco etch virus protease A fused to the C terminus of β arrestin 2) (P32121 1-409, tags or fused parts left off): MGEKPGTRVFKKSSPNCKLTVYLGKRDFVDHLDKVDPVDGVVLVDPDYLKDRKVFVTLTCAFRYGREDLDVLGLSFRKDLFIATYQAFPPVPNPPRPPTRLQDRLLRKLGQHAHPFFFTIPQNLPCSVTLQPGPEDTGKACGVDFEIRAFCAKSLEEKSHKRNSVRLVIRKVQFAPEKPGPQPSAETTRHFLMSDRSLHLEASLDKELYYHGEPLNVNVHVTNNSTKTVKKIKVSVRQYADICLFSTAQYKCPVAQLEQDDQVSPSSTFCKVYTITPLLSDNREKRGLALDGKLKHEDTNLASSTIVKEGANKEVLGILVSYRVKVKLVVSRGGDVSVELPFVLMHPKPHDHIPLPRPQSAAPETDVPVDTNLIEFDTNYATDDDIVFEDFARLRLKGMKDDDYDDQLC

Human β arrestin 2-TEV fusion (tobacco etch virus protease A fused to the C terminus of β arrestin 2) (from UniProt P32121 1-409; P04517 2040-2279)
> 3 fold: relative luminescence (reconstituted permuted luciferase) in co-transfected CHO-K1 cells, with or without 10 µM isoproterenol, 2 hours | relative luminescence in co-transfected CHO-K1 cells, with or without 10 µM isoproterenol, 2 hours | relative luminescence units in cotransfected CHO-K1 cells, with or without 10 µM ADRB2 agonist, 2 hours
